Article PMC5605669 (2017)

B1: APOBEC3G, wild type [human] / itself (parent complex)
chain: MKPHFRNTVERMYRDTFSYNFYNRPILSRRNTVWLCYEVKTKGPSRPPLDAKIFRGQVYSELKYHPEMRFFHWFSKWRKLHRDQEYEVTWYISWSPCTKCTRDMATFLAEDPKVTLTIFVARLYYFWDPDYQEALRSLCQKRDGPRATMKIMNYDEFQHCWSKFVYSQRELFEPWNNLPKYYILLHIMLGEILRHSMDPPTFTFNFNNEPWVRGRHETYLCYEVERMHNDTWVLLNQRRGFLCNQAPHKHGFLEGRHAELCFLDVIPFWKLDLDQDYRVTCFTSWSPCFSCAQEMAKFISKNKHVSLCIFTARIYDDQGRCQEGLRTLAEAGAKISIMTYSEFKHCWDTFVDHQGCPFQPWDGLDEHSQDLSGRLRAILQNQEN

Variants of: B1
Test: single-molecule ssDNA binding curves fit with two-step binding model (k2 from k slow); parent: 0.007; read off a plot

**Q.** With chain 1 I314A, chain 1 Y315A as the variant, how does the screen value read?
**A.** ~0.0066 s⁻¹

**Q.** For chain 1 R313A, chain 1 D316A, chain 1 D317A, chain 1 Q318A, which screen value is on record?
**A.** ~0.0057 s⁻¹
